Reference: patent US20210253711A1 (CULLINAN MICA, published 2021)

What was measured:
[1] = molecular target: T1, Recombinant MICA*02 protein; assay: ELISA, coated MICA*02, OD 450 nm
T1 construct: Coated on ELISA plates
T1 sequence (Q29983 whole entry, species assumed, looked up): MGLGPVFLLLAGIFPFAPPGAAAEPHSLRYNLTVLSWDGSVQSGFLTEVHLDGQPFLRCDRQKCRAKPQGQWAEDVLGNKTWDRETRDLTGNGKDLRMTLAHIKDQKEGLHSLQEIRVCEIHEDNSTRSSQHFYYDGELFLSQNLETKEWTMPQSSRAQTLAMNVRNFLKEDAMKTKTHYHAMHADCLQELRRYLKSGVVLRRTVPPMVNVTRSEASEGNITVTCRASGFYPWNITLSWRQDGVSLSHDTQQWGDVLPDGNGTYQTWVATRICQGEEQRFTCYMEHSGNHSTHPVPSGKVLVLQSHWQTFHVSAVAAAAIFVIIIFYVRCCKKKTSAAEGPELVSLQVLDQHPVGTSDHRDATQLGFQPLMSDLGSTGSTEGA
Experimental: (§1) Recombinant MICA*01, MICA*02, MICA*04, MICA*08, MICA*09, and MICB proteins were diluted to 1 μg/ml in 50 mM sodium carbonate buffer, pH 9.6, and coated onto high binding 96-well microplates (Corning #9018), 100 ng in 100 ul per well. The following morning, coated ELISA plates were washed three times with TBS-Tween-20, pH 7.4 and then blocked in SuperBlock T20 Blocking Buffer (Pierce #37536). After blocking, ELISA plates were washed once with TBS-T and incubated with serially diluted anti-MICA antibody (0-1 μg/ml) for approximately two hours at room temperature. Following the incubation, ELISA plates were washed three times with TBS-T and then incubated with Goat anti-Mouse IgG (H+L)-HRP conjugate (ThermoFisher Scientific #626520) for 45 minutes at room temperature with shaking (˜400 rpm). After the incubation, ELISA plates were washed three times with TBS-T and incubated with Super Sensitive Liquid Substrate TMB (Sigma #T4444), 100 ul per well, until color development was sufficient. The reaction was stopped with 1N sulfuric acid, 100 ul per well. Optical density (OD) values were measured at 450 nm using a microplate reader.

[2] = molecular target: T2, Recombinant MICA*09 protein; assay: ELISA, coated MICA*09, OD 450 nm
T2 construct: Coated on ELISA plates
T2 sequence (Q29983 whole entry, species assumed, looked up): T1 sequence (Q29983 whole entry, species assumed, looked up)
Experimental: as §1

Recombinant MICB protein = molecular target: T3, Recombinant MICB protein (UniProt Q29980 23-298, limits assumed); assay: ELISA, coated MICB, OD 450 nm
T3 construct: Coated on ELISA plates
T3 sequence (looked up): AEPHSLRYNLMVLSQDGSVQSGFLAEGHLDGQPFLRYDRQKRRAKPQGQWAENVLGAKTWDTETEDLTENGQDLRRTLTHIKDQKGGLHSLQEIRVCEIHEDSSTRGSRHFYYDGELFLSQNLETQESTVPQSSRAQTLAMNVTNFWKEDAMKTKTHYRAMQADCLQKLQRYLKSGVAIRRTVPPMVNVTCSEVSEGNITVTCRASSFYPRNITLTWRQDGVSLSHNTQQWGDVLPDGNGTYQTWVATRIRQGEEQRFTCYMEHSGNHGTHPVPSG
Experimental: as §1

[3] = molecular target: T4, Recombinant MICA*04 protein; assay: ELISA, coated MICA*04, OD 450 nm
T4 construct: Coated on ELISA plates
T4 sequence (Q29983 whole entry, looked up): T1 sequence (Q29983 whole entry, species assumed, looked up)
Experimental: as §1

[4] = molecular target: T5, Recombinant MICA*08 protein; assay: ELISA, coated MICA*08, OD 450 nm
T5 construct: Coated on ELISA plates
T5 sequence (Q29983 whole entry, looked up): T1 sequence (Q29983 whole entry, species assumed, looked up)
Experimental: as §1

[5] = molecular target: T6, Recombinant MICA*01 protein (Homo sapiens (Human), UniProt Q29983 24-307); assay: ELISA, coated MICA*01, OD 450 nm
T6 construct: Coated on ELISA plates
T6 sequence: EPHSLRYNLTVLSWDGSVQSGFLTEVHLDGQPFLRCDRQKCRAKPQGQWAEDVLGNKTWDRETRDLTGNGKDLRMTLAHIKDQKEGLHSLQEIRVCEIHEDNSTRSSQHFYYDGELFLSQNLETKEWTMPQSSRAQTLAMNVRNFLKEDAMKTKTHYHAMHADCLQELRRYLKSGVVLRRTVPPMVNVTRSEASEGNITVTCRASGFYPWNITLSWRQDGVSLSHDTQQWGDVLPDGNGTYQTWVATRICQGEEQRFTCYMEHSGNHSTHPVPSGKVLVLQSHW
Experimental: as §1

Measured: EC50 (read off the curve)

B1: 3F9.E4 (antibody, V domains shown)
VH: EVQLQESGEGLVKPGGSLKLSCAASGFTFSNYAMSWVRQTPEKRLEWVAYISPGGDYIYYADTVKGRFTISRDNARNTLYLQMSSLKSEDTAMYYCTTDRRHYGSYAMDYWGQGISVTVSS
VL: DIVMTQAAPSVPVTPGESVSISCRSSKSLLHSNGNTYLYWFLQRPGQSPQLLIYRMSNLASGVPDRFSGSGSGTAFTLRISRVEAEDVGVYYCMQHLEYPFTFGSGTKLEIK
notes: the mAb was captured on anti-mouse IgG Fc biosensors and detected with goat anti-mouse IgG, so it is a mouse IgG; also called anti-MICA/B mAb; anti-MICA antibody
~0.03 µg/mL: all assays above

B2: 16F10.C12 (antibody, V domains shown)
VH: EVQLQESGPGLVAPSQSLSITCTVSGFSLTAFGVNWVRQPPGKGLEWLGMIWGDGNTDYNSTLRSRLSISKDNSKSQVFLKLNSLQTDDTARYFCARETYYGNYAGLGYWGQGTLVTVSA
VL: QIVLTQSPAIMSASIGERVTMTCTASSSVSSNYLHWYQQKPRSSPKLWIYTTSNLASGVPTRFSGSGSGTSYSLTISSMEAEDAATYYCHQFHRSPFTFGSGTKLEIK
notes: as for B1
~0.03 µg/mL: [1] | [2] | Recombinant MICB protein | [5]
